From the supplement of paper PMC10724198
± gives the standard deviation of the averaged measurements.

Legend:
Saccharomyces cerevisiae [1] = assay: protein stability index of tFT-peptide fusion (C-terminal peptide) (PSI (0-1 scale)); higher = more stable (slower turnover); details: genetic background: wild type; temperature: 30 C
Saccharomyces cerevisiae [2] = assay: as above
Protocol: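 MPS profiling in S. cerevisiae of the tFT-X12 degron library: putative degron peptides plus stable controls, 12 aa, fused to the C-terminus of a sfGFP-mCherry timer. Cells are FACS-sorted into 8 mCherry/sfGFP bins and deep-sequenced. PSI runs from 0 (unstable) to 1 (stable). Backgrounds are wild type, das1Δ and doa10Δ at 30 °C, and wild type, das1Δ, cdc34-1 and cdc53-1 at 37 °C; 2-3 technical replicates each.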

[3] = genetic background: cdc34-1, temperature: 37 C
[4] = genetic background: cdc53-1, temperature: 37 C
[5] = genetic background: das1 deletion, temperature: 30 C
[6] = genetic background: das1 deletion, temperature: 37 C
[7] = genetic background: doa10 deletion, temperature: 30 C
[8] = genetic background: wild type, temperature: 30 C
[9] = genetic background: wild type, temperature: 37 C
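Note: PSI is a weighted mean of sequencing reads over stability bins, variants kept only with over 10 reads, mCherry proximal and sfGFP distal, peptide attached via GGGS linker.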

| Sequence | protein stability index (Saccharomyces cerevisiae [1]) | protein stability index (Saccharomyces cerevisiae [2]; [3]) | protein stability index (Saccharomyces cerevisiae [2]; [4]) | protein stability index (Saccharomyces cerevisiae [2]; [5]) | protein stability index (Saccharomyces cerevisiae [2]; [6]) | protein stability index (Saccharomyces cerevisiae [2]; [7]) | protein stability index (Saccharomyces cerevisiae [2]; [8]) | protein stability index (Saccharomyces cerevisiae [2]; [9]) |
| --- | --- | --- | --- | --- | --- | --- | --- | --- |
| RLLCLARMRGLH | 0.396 ± 0.2 | 0.6854 ± 0.0031 | 0.714 ± 0.02 | 0.631 ± 0.068 | 0.728 ± 0.037 | 0.341 ± 0.036 | 0.337 ± 0.022 | 0.579 ± 0.024 |
| RLMVHQHTIPVR | 0.4449 ± 0.0039 | 0.463 ± 0.072 | 0.54 ± 0.016 | 0.307 ± 0.037 | 0.559 ± 0.021 | 0.276 ± 0.035 | 0.316 ± 0.0095 | 0.533 ± 0.0081 |
| RLVIFITRYLIS | 0.2581 ± 0.00054 | 0.337 ± 0.043 | 0.488 ± 0.066 | 0.349 ± 0.044 | 0.562 ± 0.015 | 0.116 ± 0.03 | 0.162 ± 0.016 | 0.275 ± 0.0028 |
| RLVYSQKRWSLF | 0.24 ± 0.006 | 0.673 ± 0.07 | 0.764 ± 0.032 | 0.653 ± 0.014 | 0.76378 ± 0.0006 | 0.167 ± 0.037 | 0.181 ± 0.032 | 0.451 ± 0.027 |
| RPGRWFCFLYCV | 0.185 ± 0.005 | 0.382 ± 0.063 | 0.4311 ± 0.002 | 0.418 ± 0.022 | 0.532 ± 0.011 | 0.163 ± 0.01 | 0.141 ± 0.017 | 0.233 ± 0.0093 |
| RPIFAYRPLRFL | 0.342 ± 0.053 | 0.656 ± 0.047 | 0.757 ± 0.001 | 0.654 ± 0.014 | 0.763 ± 0.023 | 0.212 ± 0.0076 | 0.231 ± 0.04 | 0.503 ± 0.015 |
| RPNTFRTRAKAL | 0.274 ± 0.081 | 0.636 ± 0.013 | 0.712 ± 0.019 | 0.619 ± 0.026 | 0.734 ± 0.017 | 0.145 ± 0.003 | 0.168 ± 0.039 | 0.333 ± 0.057 |
| RRFKKTEIIKNN | 0.247 ± 0.004 | 0.625 ± 0.024 | 0.765 ± 0.048 | 0.653 ± 0.022 | 0.7804 ± 0.0062 | 0.1324 ± 0.00038 | 0.143 ± 0.053 | 0.29 ± 0.048 |
| RRVPVHIHFSLF | 0.291 ± 0.03 | 0.627 ± 0.0066 | 0.707 ± 0.028 | 0.691 ± 0.014 | 0.732 ± 0.039 | 0.156 ± 0.0052 | 0.194 ± 0.021 | 0.393 ± 0.033 |
| RSKKIFLTKKYS | 0.281 ± 0.075 | 0.608 ± 0.053 | 0.734 ± 0.042 | 0.64 ± 0.035 | 0.701 ± 0.018 | 0.162 ± 0.0021 | 0.202 ± 0.025 | 0.395 ± 0.044 |
| RSPIRYPPVVLS | 0.518 ± 0.07 | 0.698 ± 0.038 | 0.753 ± 0.011 | 0.645 ± 0.021 | 0.7493 ± 0.0034 | 0.539 ± 0.021 | 0.539 ± 0.008 | 0.6895 ± 0.0015 |
| RSPVVVFAVLLF | 0.423 ± 0.018 | 0.438 ± 0.072 | 0.481 ± 0.034 | 0.341 ± 0.036 | 0.524 ± 0.016 | 0.35 ± 0.037 | 0.35 ± 0.029 | 0.505 ± 0.0057 |
| RSRCVRAAVKVG | 0.324 ± 0.0059 | 0.612 ± 0.036 | 0.659 ± 0.025 | 0.569 ± 0.043 | 0.70656 ± 0.00048 | 0.177 ± 0.0018 | 0.216 ± 0.023 | 0.427 ± 0.026 |
| RSRRNRYSRKIA | 0.184 ± 0.013 | 0.506 ± 0.024 | 0.659 ± 0.031 | 0.696 ± 0.043 | 0.6959 ± 0.0048 | 0.0765 ± 0.034 | 0.0787 ± 0.024 | 0.141 ± 0.03 |
| RSWLCFIVFGLF | 0.313 ± 0.011 | 0.368 ± 0.027 | 0.413 ± 0.03 | 0.317 ± 0.03 | 0.485 ± 0.015 | 0.238 ± 0.0067 | 0.234 ± 0.014 | 0.347 ± 0.011 |
| RTSRPVRLFRIH | 0.402 ± 0.06 | 0.753 ± 0.031 | 0.83846 ± 4.9e-05 | 0.656 ± 0.022 | 0.78 ± 0.009 | 0.26 ± 0.051 | 0.279 ± 0.046 | 0.448 ± 0.0097 |
| RVCWLRAFGFLV | 0.305 ± 0.028 | 0.666 ± 0.033 | 0.718 ± 0.019 | 0.587 ± 0.022 | 0.724 ± 0.024 | 0.258 ± 0.015 | 0.29 ± 0.051 | 0.57118 ± 0.00039 |
| RVGALLAVTCPA | 0.446 ± 0.0093 | 0.435 ± 0.035 | 0.47214 ± 0.00033 | 0.308 ± 0.025 | 0.5127 ± 0.0033 | 0.262 ± 0.0067 | 0.302 ± 0.036 | 0.4766 ± 0.0026 |
| RVLILCLFFRWS | 0.347 ± 0.18 | 0.2532 ± 0.00072 | 0.404 ± 0.0096 | 0.274 ± 0.033 | 0.435 ± 0.0084 | 0.257 ± 0.0049 | 0.279 ± 0.029 | 0.397 ± 0.016 |
| RVVILFVFLVYV | 0.3235 ± 0.0031 | 0.269 ± 0.013 | 0.342 ± 0.0015 | 0.258 ± 0.037 | 0.376 ± 0.0065 | 0.2526 ± 0.0011 | 0.25 ± 0.018 | 0.365 ± 0.014 |

| Sequence | protein stability index (Saccharomyces cerevisiae [1]) | protein stability index (Saccharomyces cerevisiae [2]; [3]) | protein stability index (Saccharomyces cerevisiae [2]; [4]) | protein stability index (Saccharomyces cerevisiae [2]; [5]) | protein stability index (Saccharomyces cerevisiae [2]; [6]) | protein stability index (Saccharomyces cerevisiae [2]; [7]) | protein stability index (Saccharomyces cerevisiae [2]; [8]) | protein stability index (Saccharomyces cerevisiae [2]; [9]) |
| --- | --- | --- | --- | --- | --- | --- | --- | --- |
| RWCLWGTRVWVS | 0.147 ± 0.028 | 0.439 ± 0.04 | 0.522 ± 0.037 | 0.444 ± 0.021 | 0.591 ± 0.029 | 0.103 ± 0.0031 | 0.111 ± 0.022 | 0.153 ± 0.03 |
| RWELASKCRLCV | 0.296 ± 0.04 | 0.563 ± 0.0077 | 0.6716 ± 0.0053 | 0.563 ± 0.021 | 0.7123 ± 0.0068 | 0.148 ± 0.011 | 0.16 ± 0.029 | 0.304 ± 0.061 |
| RWRDGVAWVVVC | 0.143 ± 0.025 | 0.254 ± 0.011 | 0.314 ± 0.024 | 0.289 ± 0.032 | 0.452 ± 0.0084 | 0.0897 ± 0.019 | 0.098 ± 0.0042 | 0.0954 ± 0.0098 |
| SAWGQAFWCQMG | 0.4071 ± 0.00098 | 0.712 ± 0.027 | 0.7859 ± 0.0057 | 0.648 ± 0.019 | 0.764 ± 0.016 | 0.233 ± 0.016 | 0.265 ± 0.014 | 0.555 ± 0.025 |
| SCCGCGFGLLFC | 0.73 ± 0.018 | 0.731 ± 0.011 | 0.807 ± 0.0017 | 0.631 ± 0.023 | 0.7812 ± 0.0002 | 0.643 ± 0.032 | 0.632 ± 0.016 | 0.7399 ± 0.0056 |
| SCCIYVALCRWL | 0.382 ± 0.016 | 0.473 ± 0.024 | 0.573 ± 0.0093 | 0.43 ± 0.024 | 0.5601 ± 0.0013 | 0.323 ± 0.0071 | 0.353 ± 0.035 | 0.48 ± 0.0084 |
| SCGVYVVFVLVE | 0.286 ± 0.16 | 0.0658 ± 0.027 | 0.133 ± 0.047 | 0.16 ± 0.042 | 0.294 ± 0.006 | 0.128 ± 0.026 | 0.152 ± 0.022 | 0.246 ± 0.0014 |
| SCIVRTLVPCPS | 0.373 ± 0.022 | 0.377 ± 0.0049 | 0.419 ± 0.034 | 0.253 ± 0.04 | 0.4761 ± 0.0022 | 0.224 ± 0.016 | 0.27 ± 0.029 | 0.445 ± 0.0094 |
| SFCVLLQFCVLV | 0.0186 ± 0.026 | 0.412 ± 0.0095 | 0.432 ± 0.0084 | 0.351 ± 0.021 | 0.461 ± 0.011 | 0.336 ± 0.0041 | 0.3381 ± 0.0012 | 0.4258 ± 0.0029 |
| SFFCTRVLWVFQ | 0.157 ± 0.023 | 0.534 ± 0.017 | 0.612 ± 0.025 | 0.539 ± 0.022 | 0.6285 ± 0.0029 | 0.0925 ± 0.004 | 0.0846 ± 0.027 | 0.149 ± 0.029 |
| SFHTFFCPFFIL | 0.205 ± 0.024 | 0.53 ± 0.051 | 0.6678 ± 0.0037 | 0.645 ± 0.038 | 0.713 ± 0.032 | 0.189 ± 0.0043 | 0.168 ± 0.023 | 0.288 ± 0.022 |
| SGPNASRFYAPI | 0.696 ± 0.041 | 0.672 ± 0.04 | 0.733 ± 0.0081 | 0.634 ± 0.013 | 0.72486 ± 8.5e-06 | 0.657 ± 0.034 | 0.656 ± 0.037 | 0.704 ± 0.011 |
| SHPFIRSLVFLA | 0.103 ± 0.037 | 0.43 ± 0.015 | 0.6729 ± 0.0026 | 0.629 ± 0.008 | 0.721 ± 0.02 | 0.0816 ± 0.008 | 0.0711 ± 0.0057 | 0.0908 ± 0.014 |
| SHWSMQATLQLV | 0.469 ± 0.016 | 0.617 ± 0.046 | 0.694 ± 0.025 | 0.568 ± 0.021 | 0.6866 ± 0.0046 | 0.443 ± 0.034 | 0.468 ± 0.011 | 0.601 ± 0.012 |
| SIFFLVPLVFLS | 0.214 ± 0.043 | 0.4422 ± 0.0014 | 0.532 ± 0.027 | 0.408 ± 0.035 | 0.584 ± 0.015 | 0.134 ± 0.0055 | 0.141 ± 0.019 | 0.216 ± 0.055 |
| SIPVWTIELFAT | 0.469 ± 0.037 | 0.555 ± 0.022 | 0.627 ± 0.012 | 0.428 ± 0.026 | 0.6153 ± 0.0042 | 0.335 ± 0.022 | 0.368 ± 0.035 | 0.537 ± 0.039 |
| SLEACYCFVVLV | 0.2744 ± 0.00036 | 0.187 ± 0.0034 | 0.199 ± 0.0087 | 0.214 ± 0.028 | 0.291 ± 0.0068 | 0.175 ± 0.019 | 0.186 ± 0.023 | 0.25 ± 0.015 |
| SLFDQDCGGTVW | 0.764 ± 0.027 | 0.756 ± 0.034 | 0.78 ± 0.013 | 0.686 ± 0.016 | 0.784 ± 0.014 | 0.655 ± 0.014 | 0.6706 ± 0.0058 | 0.804 ± 0.016 |
| SLIFRVGKFKSL | 0.137 ± 0.021 | 0.5892 ± 0.0014 | 0.6968 ± 0.0048 | 0.654 ± 0.019 | 0.738 ± 0.012 | 0.0628 ± 0.011 | 0.0746 ± 0.017 | 0.101 ± 0.0098 |
